The data set can be described thus: yeast display, Sf9 membrane polyspecificity reagent, FACS + sequencing; frameworks hold sequencing errors. In a few lines:
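A synthetic nanobody library was expressed on Saccharomyces cerevisiae BJ5465 by galactose induction for 36–48 hours. The library was stained for 1 hour at 4 °C with 10% biotinylated, detergent-solubilized Sf9 membrane reagent and enriched with streptavidin microbeads before FACS. Low and high (top ~1%) gates were set on anti-HA fluorescence for expression and streptavidin fluorescence for reagent binding, and each polyreactivity label reflects the gate of origin.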
Consider “QVQLVESGGGLVQAGGSLRLSCAASGRTFWGYAMGWYRPAPGKERELVAAISSGGDTTYADSVKGRFTISRDNAKNTVYLQMNSLKPEDTAVFYCAADRWYSRYTRYGYWGQGTQVTVSS”, for which the “polyreactivity (PSR sort gate)” value is “low polyreactivity”.
As for “QVQLVESGGGLVQAGGSLRLSCAASGRTFWNYAMGWYRQAPGKERELVAVIRFSDGSTYYADSVKGRFTISRDNAKNTVYLQMKSLKPEDTAVYYCGAKGQRRWGSGFDYWGQGTQVTVSS”, the “polyreactivity (PSR sort gate)” value was “low polyreactivity”.
The entry for “QVQLVESGGGLVQAGGSLRLSCAASGRTFWPNVMGWYRQAPGKERELVAALTWGDASTYYADSVKGRFTISRDNAKYTVYLQMNSLKPEDTAVYYCAASDYRRTYDYWGQGTQVTVSS” is “low polyreactivity”; for “QVQLVESGGGLVQAGGSLRLSCAASGRTFWPYAMGWYRQAPGKERELVAAITSDGSTTYADSVTGRFTISRDNAKNTVYLQMNSLTPEDTAVYYCAAYGYYYDQTIPMDYWGQGTQVTVSS” it is “low polyreactivity”; for “QVQLVESGGGLVQAGGSLRLSCAASGRTFWRNAMGWYRPAPGKERELVAVISVRGSSTSYADSVKGRFTISRDNAKNNVYFQMNILKPEDTGVYYCAAGRRYRSVGYGYWGQGTQLTVSS” it is “high polyreactivity”.
As to “QVQLVESGGGLVQAGGSLRLSCAASGRTFWRNAMGWYRQAPGKERELVAAISRGASTNYADSVKGRYTISRDNAKNTVYLQMNSLKPEDTAFYYCAARYYYRYNYWGQGTQVTVSS”, the “polyreactivity (PSR sort gate)” value was “high polyreactivity”.
As to “QVQLVESGGGLVQAGGSLRLSCAASGRTFWRNAMGWYRQAPGKERELVAAISRGGSTKYADSVKGRFTISRDNAKNTVYLQMNSLKPEDTAVYYCAAATPGRYGYWGQGTQVTVSS”, the “polyreactivity (PSR sort gate)” value is reported as “high polyreactivity”.
The entry for “QVQLVESGGGLVQAGGSLRLSCAASGRTFWRYVMGWYRQAPGKERELVASITRSGGTTNYADSVKGRFTISRDIAKNTVYLQMNSLKPEDTAVYYCNARTVYSWSREYNYWGQGTQVTVSS” is “high polyreactivity”; for “QVQLVESGGGLVQAGGSLRLSCAASGRTFWSYAMGWYRQAPGKERELVAAINSGGSTYYADSVKGRFTISRDNAKNTVYLQMNSLKPEDTAVYYFAADTWYGFDWGQGTQVTVSS” it is “high polyreactivity”; for “QVQLVESGGGLVQAGGSLRLSCAASGRTFWTYAMGWYRQAPGKERELVASISKSGGSTYADSVKGRFTISRDNAKNTVYLQMNSLKPEDTAVYVCAAYPYFSKGWGWYPYDYWGQGTQVTVSS” it is “low polyreactivity”.
With “QVQLVESGGGLVQAGGSLRLSCAASGRTFWVYAMGWYRQAPGKERELVAAINTGGSTTYADSVKGRFTISRDNAKNTVYLQMNSLKPEDTAVYYCAADTWWYGKYDYWGQGTQVTVSS”, the “polyreactivity (PSR sort gate)” value is recorded as “low polyreactivity”.
For “QVQLVESGGGLVQAGGSLRLSCAASGRTFWVYAMGWYRQAPGKERELVAAISWRAGSTYYADSVKGRFTISRDNAKNTVYLLMNSLKPEVTAVYYCAAETYTTLDYWGQGTQVTVSS”, the “polyreactivity (PSR sort gate)” value is on record as “high polyreactivity”.
The entry for “QVQLVESGGGLVQAGGSLRLSCAASGRTFWVYAMGWYRQAPGKERELVASISWSVGSTYYADSVKGRFTISRDNAKNTVYLQMNSLKPEDTAVYYCAVDPATNVEGDYWGQGTQVTVSS” is “low polyreactivity”; for “QVQLVESGGGLVQAGGSLRLSCAASGRTFWYYAMGWYRPAPGKERELVATITGGARTTYADSVKGRFTISRDNAKNTVYLQMNSLKPEDTAVYYCARARNSVKRGYYYWGQGTQVTVSS” it is “high polyreactivity”; for “QVQLVESGGGLVQAGGSLRLSCAASGRTFWYYAMGWYRQAPGKEREFVAAISYSGDGTYYADSVKGRFTISRDNAKNTVYLQMNSLKPEDTAVYYCAAEWYDPTLPTAWSEYEYWGQGTQVTVSS” it is “high polyreactivity”.
Turning to “QVQLVESGGGLVQAGGSLRLSCAASGRTFWYYAMGWYRQAPGKERELVAASTYRGGSTYYADSVKGRFTISRDNVKNTVYLQMNSLKPEDTAVYYCAAPYGEDYWRQGTQVTVSS”, the “polyreactivity (PSR sort gate)” value is recorded as “high polyreactivity”.
With “QVQLVESGGGLVQAGGSLRLSCAASGRTFWYYAMGWYRQAPGKERELVATISYRGGSTYYADSVKGRFTISRDNAKNTVYLQMNSLKPEDTAVYYCAAKQWWGGRPKVDYWGQGTQVTVSS”, the “polyreactivity (PSR sort gate)” value is recorded as “high polyreactivity”.
For the sequence “QVQLVESGGGLVQAGGSLRLSCAASGRTFWYYAMGWYRQAPGKERELVAYADSVKGRFTISRDNAKNTVYLQMNSLIPEDTAVYYCAVGPVVWFSSSLYYTDYYYWGQGTQVTVSS”, the “polyreactivity (PSR sort gate)” value was “low polyreactivity”.
Take “QVQLVESGGGLVQAGGSLRLSCAASGRTFWYYAMGWYRQSPGKERELVAVITSGSSTYYADSVKGRFTISRDNAKNTDYLQMTSLKPEDTAVYYCAVGRTYRRYSAASYNYWGQGTQVTVSS”: the “polyreactivity (PSR sort gate)” value is recorded as “high polyreactivity”.
As to “QVQLVESGGGLVQAGGSLRLSCAASGRTFWYYPMGWYRQAPGKEREFVAAISWSGGSTYYADSVKGRFTISRDNAKNTVYLQMNSLKPEDTAVYYCAADRYDSSQFYYWGQGTQVTVSS”, the “polyreactivity (PSR sort gate)” value is “low polyreactivity”.
Consider “QVQLVESGGGLVQAGGSLRLSCAASGRTFWYYTMGWYRQAPGKERELVAAISGSGGRTYYADSVKGRFTISRDNAKNTVYLQMNSLKPEDTAVYYCAARRAYFVAYIYDRDYWGQGTQVTVSS”, for which the “polyreactivity (PSR sort gate)” value is on record as “high polyreactivity”.
“QVQLVESGGGLVQAGGSLRLSCAASGRTFWYYTMGWYRQAPGKERELVAAISSGGTTNYADSVKGRFTISRDNAKNTVYLQMNSLKPEDTAVYYCAAEANSGDGYYWGQGTQVTVSS”: the “polyreactivity (PSR sort gate)” value is given as “high polyreactivity”.
Regarding “QVQLVESGGGLVQAGGSLRLSCAASGRTFWYYTMGWYRQAPGKERELVASISRVTSTYYADSVKGRLTISRDNAKNTVYLQMNSLKPEDTAVYYCAADRTRYYVGYRWTGNKMDYWGQGSQVTVSS”, the “polyreactivity (PSR sort gate)” value is given as “low polyreactivity”.
The entry for “QVQLVESGGGLVQAGGSLRLSCAASGRTFWYYTMGWYRQAPGKEWELVAAIRASGGGTYADSVKGLFTISRDNAKNTVYLQMNSLNPEDTAVYYCAVRNVYGWYGSRDYWGQGTQVTVSS” is “high polyreactivity”.
With “QVQLVESGGGLVQAGGSLRLSCAASGRTFYANTMGWYRQAPGKERELVAGITSGGSTSYADSVKGRFTISRDNAKNTVYLQMNSLKPVDTAVYYCAAQFYRYTATGYYADGYWGQGTQVTVSS” the entry was “low polyreactivity”; with “QVQLVESGGGLVQAGGSLRLSCAASGRTFYAYAMGWYRQAPGKERELVAAITSGASTYYADSVKGRFTISRDNAKNTVYLQMISLKPEDTAVYYCAKRVRYYKPGYDYWGQGTQVTVSS”, “low polyreactivity”; with “QVQLVESGGGLVQAGGSLRLSCAASGRTFYAYTMGWYRQAPGKERELVAAISSSGGSTYYADSVKGRFTISRDNAKNTVYLQMNSLKPEDTAVYYCAAVWYFNRRVSGYYYWGQGTQVTVSS”, “high polyreactivity”.
Take “QVQLVESGGGLVQAGGSLRLSCAASGRTFYDNAMRWYRQAPGKERELDAAITNGGRTNYADSVKGRFTISRDNAKNTVYLQMNSLKPEDTAVYYCAADFWPWYRYYSGGVDYWGQGTQVTVSS”: the “polyreactivity (PSR sort gate)” value is “high polyreactivity”.
With “QVQLVESGGGLVQAGGSLRLSCAASGRTFYDYAMGWYRQAPGKEREFVARITYSGGGTYYADSVKGRFTISRDNAKNTVYLQMNSLKPEDTAVYYCARPFIRYLGLTRNGYTSDYWGQGTQVTVSS” the entry was “high polyreactivity”.
In the case of “QVQLVESGGGLVQAGGSLRLSCAASGRTFYDYAMGWYRQAPGKERELVAAITYRDGTTYYADSVKGRFTISRDNAKNTVYLQMNSLKPEDTAVYDCGKTYYYSLGHGYNYWGQGTQVTVSS”, the “polyreactivity (PSR sort gate)” value was “low polyreactivity”.
The entry for “QVQLVESGGGLVQAGGSLRLSCAASGRTFYFNAMGWYRQAPGKERELVAGISGDGSTNYADSVKGRFTISRDNAKNTFYLQMNSLKPEDTAVYYCAKTMGSQSYDFDYWGQGTQVTVSS” is “low polyreactivity”.
On to “QVQLVESGGGLVQAGGSLRLSCAASGRTFYGNAMGWYRQAPGKERELVAAITSGGGSTRYADSVKGRFTISRDNANNTVYLQMNSLKPEHTAVYYCAAYRQGTAYDYWGQGTQVTVSS”, for which the “polyreactivity (PSR sort gate)” value is “high polyreactivity”.
With “QVQLVESGGGLVQAGGSLRLSCAASGRTFYGYAMGWYRQAPGKERELVAAISKSGGRTYYADSVKGRFTISRDNAKNTVYLQMNSLKPEDSAVYYCNAPVTGAGTYPPYDSWGQGTQVTVSS”, the “polyreactivity (PSR sort gate)” value is listed as “high polyreactivity”.
In the case of “QVQLVESGGGLVQAGGSLRLSCAASGRTFYGYAMGWYRQAPGKERELVAAITQRSGSTYYADSVKGRFTISRDNAKNTVYLQMNSLKPEDTAVYYYNADKSQRVRRGDYWGQGTQVTVSS”, the “polyreactivity (PSR sort gate)” value is listed as “high polyreactivity”.
The entry for “QVQLVESGGGLVQAGGSLRLSCAASGRTFYGYAMGWYRQAPGKERELVAGITSRVGSTYYADSVKGRFTISRDNAKNNVYLQMNSLKPEDTAVYYCAADRYAVRSYHYDYWGQGTQVTVSS” is “low polyreactivity”; for “QVQLVESGGGLVQAGGSLRLSCAASGRTFYGYAMGWYRQAPGKERELVATITRRGGSTYYADSVKGRFTISRDNAKNTVYLQMNSLKPEDTAVYYCARQGDQYYRDGDDYWGQGTQVTVSS” it is “high polyreactivity”; for “QVQLVESGGGLVQAGGSLRLSCAASGRTFYGYAMGWYRQAPGKERELVAVITSGVRTNYADSVKGRFTISRDNAKNTVYLQMNSLKPEDTAVYYCAARGTLALRDHYGYWGQGTQVNVSS” it is “high polyreactivity”.
“QVQLVESGGGLVQAGGSLRLSCAASGRTFYGYGMGWYRQAPGKERELVAGISVRGGSTYYADSVKGRFTISRDNAKNTVYLQMNSLKPEDTAVYYCAALGWRPTYYYWGHGTQVTVSS”: the “polyreactivity (PSR sort gate)” value is “high polyreactivity”.
Turning to “QVQLVESGGGLVQAGGSLRLSCAASGRTFYHYAMGWYRQAPGKERELFAAISWTGGSTSSTYYADSVKGRFTISRDNAKNTVYLQMNSLKPEDTAVYYCAADFWWGHTWQDDYWGQGTQVTVSS”, the “polyreactivity (PSR sort gate)” value is recorded as “low polyreactivity”.
Turning to “QVQLVESGGGLVQAGGSLRLSCAASGRTFYHYAMGWYRQAPGKERELVAAITGSGGSTSYADSVKGRFTISRDNAKNTVYLQMNTLKPEDTAVYYCAAVQFPTPLLLYDSWGQGTQVTVSS”, the “polyreactivity (PSR sort gate)” value is on record as “low polyreactivity”.
The entry for “QVQLVESGGGLVQAGGSLRLSCAASGRTFYHYVMGWYRQEPGKERELVAAITSRGGSTYYADSVKGRFTISRDNAKNTVYLQMNSLKPEDTAVYYCAARLNYGNKYDYWGQGTQVTVSS” is “high polyreactivity”.

Values taken from the nanobody polyreactivity screen of Harvey et al. (2022).
